Results as given in patent publication US20260242419A1, “A CYCLIC PEPTIDE FOR TRAPPING INTERLEUKIN-1 BETA” (Merck Sharp & Dohme LLC, priority 2023, published 2026).
Starred links: 1 amine or outer side, 2 acyl side, 3 side chain; linkers in the order of their positions; H or OH if unused. Non-standard residues stand in square brackets, D forms with d. 3AzaTyrEtNAc = (2S)-3-[6-(2-acetamidoethoxy)-3-pyridyl]-2-amino-propanoic acid, CC(=O)NCCOc1ccc(C[C@H](N[*:1])C(=O)[*:2])cn1; TyrEtNAc = (2S)-3-[4-(2-acetamidoethoxy)phenyl]-2-amino-propanoic acid, CC(=O)NCCOc1ccc(C[C@H](N[*:1])C(=O)[*:2])cc1; 2PyrimAla = (2S)-2-amino-3-(pyrimidin-2-yl)propanoic acid, O=C([C@H](Cc1ncccn1)N[*:1])[*:2]; F4ptCCA = trans-4-[4-(2-amino-2-carboxyethyl)phenyl]cyclohexanecarboxylic acid; Phe(4-(cis-4-COOH-cHex)) = N[C@@H](Cc1ccc([C@H]2CC[C@@H](C(=O)O)CC2)cc1)C(=O)O; dPro(4R-(4-pyridylmethyl)) = O=C(O)[C@H]1C[C@@H](Cc2ccncc2)CN1; Ala(piperidin-4-yl) = O=C([C@H](CC1CCN([*:3])CC1)N[*:1])[*:2]; Trp(βS-Me,4-F) = C[C@@H](c1c[nH]c2cccc(F)c12)[C@H](N)C(=O)O; Bip(4'-COOH) = N[C@@H](Cc1ccc(-c2ccc(C(=O)O)cc2)cc1)C(=O)O; Ala(1-bicyclo(1.1.1)pentyl) = N[C@@H](CC12CC(C1)C2)C(=O)O; dPro(4R-Bzl(4-F)) = O=C(O)[C@H]1C[C@@H](Cc2ccc(F)cc2)CN1; Ala(pyrimidin-5-yl) = N[C@@H](Cc1cncnc1)C(=O)O; Phe(4-COOH) = N[C@@H](Cc1ccc(C(=O)O)cc1)C(=O)O; Ala(4-Pyridazinyl) = N[C@@H](Cc1ccnnc1)C(=O)O; Ala(2-pyrazinyl) = N[C@@H](Cc1cnccn1)C(=O)O; Pro(cis-4-F) = O=C(O)[C@@H]1C[C@H](F)CN1; Ala(4-THP) = N[C@@H](CC1CCOCC1)C(=O)O; 4Pal = N[C@@H](Cc1ccncc1)C(=O)O; d(αMeS) = C[C@@](N)(CO)C(=O)O; Orn = NCCC[C@H](N)C(=O)O; Dab = NCC[C@H](N)C(=O)O; Dap = NC[C@H](N)C(=O)O; Aib = CC(C)(N)C(=O)O

B1: SEQ ID NO: 119 (peptide)
peptide: cyclo([Bip(4'-COOH)][4Pal][Phe(4-COOH)]G[Pro(cis-4-F)][Trp(βS-Me,4-F)][Aib]EW[Aib][Ala(piperidin-4-yl)]Q[Dab]G[dPro(4R-Bzl(4-F))])
SMILES: C[C@@H](c1c[nH]c2cccc(F)c12)[C@@H]1NC(=O)[C@@H]2C[C@H](F)CN2C(=O)CNC(=O)[C@H](Cc2ccc(C(=O)O)cc2)NC(=O)[C@H](Cc2ccncc2)NC(=O)[C@H](Cc2ccc(-c3ccc(C(=O)O)cc3)cc2)NC(=O)[C@H]2C[C@@H](Cc3ccc(F)cc3)CN2C(=O)CNC(=O)[C@H](CCN)NC(=O)[C@H](CCC(N)=O)NC(=O)[C@H](CC2CCNCC2)NC(=O)C(C)(C)NC(=O)[C@H](Cc2c[nH]c3ccccc23)NC(=O)[C@H](CCC(=O)O)NC(=O)C(C)(C)NC1=O
B2: SEQ ID NO: 118 (peptide)
peptide: cyclo([Bip(4'-COOH)][4Pal][Phe(4-COOH)]G[Pro(cis-4-F)][Trp(βS-Me,4-F)][Aib]EW[Aib][Ala(4-THP)]Q[Dab]G[dPro(4R-Bzl(4-F))])
SMILES: C[C@@H](c1c[nH]c2cccc(F)c12)[C@@H]1NC(=O)[C@@H]2C[C@H](F)CN2C(=O)CNC(=O)[C@H](Cc2ccc(C(=O)O)cc2)NC(=O)[C@H](Cc2ccncc2)NC(=O)[C@H](Cc2ccc(-c3ccc(C(=O)O)cc3)cc2)NC(=O)[C@H]2C[C@@H](Cc3ccc(F)cc3)CN2C(=O)CNC(=O)[C@H](CCN)NC(=O)[C@H](CCC(N)=O)NC(=O)[C@H](CC2CCOCC2)NC(=O)C(C)(C)NC(=O)[C@H](Cc2c[nH]c3ccccc23)NC(=O)[C@H](CCC(=O)O)NC(=O)C(C)(C)NC1=O
B3: SEQ ID NO: 117 (peptide)
peptide: cyclo([Phe(4-(cis-4-COOH-cHex))][4Pal][Phe(4-COOH)]G[Pro(cis-4-F)][Trp(βS-Me,4-F)][Aib]EW[Aib][Ala(2-pyrazinyl)]Q[Dab]G[dPro(4R-Bzl(4-F))])
SMILES: C[C@@H](c1c[nH]c2cccc(F)c12)[C@@H]1NC(=O)[C@@H]2C[C@H](F)CN2C(=O)CNC(=O)[C@H](Cc2ccc(C(=O)O)cc2)NC(=O)[C@H](Cc2ccncc2)NC(=O)[C@H](Cc2ccc([C@H]3CC[C@@H](C(=O)O)CC3)cc2)NC(=O)[C@H]2C[C@@H](Cc3ccc(F)cc3)CN2C(=O)CNC(=O)[C@H](CCN)NC(=O)[C@H](CCC(N)=O)NC(=O)[C@H](Cc2cnccn2)NC(=O)C(C)(C)NC(=O)[C@H](Cc2c[nH]c3ccccc23)NC(=O)[C@H](CCC(=O)O)NC(=O)C(C)(C)NC1=O
B4: SEQ ID NO: 116 (peptide)
peptide: cyclo([Bip(4'-COOH)][Ala(4-Pyridazinyl)][Phe(4-COOH)]G[Pro(cis-4-F)][Trp(βS-Me,4-F)][Aib]EW[Aib][Ala(pyrimidin-5-yl)]Q[Dab]G[dPro(4R-Bzl(4-F))])
SMILES: C[C@@H](c1c[nH]c2cccc(F)c12)[C@@H]1NC(=O)[C@@H]2C[C@H](F)CN2C(=O)CNC(=O)[C@H](Cc2ccc(C(=O)O)cc2)NC(=O)[C@H](Cc2ccnnc2)NC(=O)[C@H](Cc2ccc(-c3ccc(C(=O)O)cc3)cc2)NC(=O)[C@H]2C[C@@H](Cc3ccc(F)cc3)CN2C(=O)CNC(=O)[C@H](CCN)NC(=O)[C@H](CCC(N)=O)NC(=O)[C@H](Cc2cncnc2)NC(=O)C(C)(C)NC(=O)[C@H](Cc2c[nH]c3ccccc23)NC(=O)[C@H](CCC(=O)O)NC(=O)C(C)(C)NC1=O
B5: SEQ ID NO: 12 (peptide)
peptide: cyclo([3AzaTyrEtNAc][4Pal][Phe(4-COOH)]G[Pro(cis-4-F)][Trp(βS-Me,4-F)][Aib]EW[Aib][Ala(pyrimidin-5-yl)]Q[Dab]G[dPro(4R-Bzl(4-F))])
SMILES: CC(=O)NCCOc1ccc(C[C@@H]2NC(=O)[C@H]3C[C@@H](Cc4ccc(F)cc4)CN3C(=O)CNC(=O)[C@H](CCN)NC(=O)[C@H](CCC(N)=O)NC(=O)[C@H](Cc3cncnc3)NC(=O)C(C)(C)NC(=O)[C@H](Cc3c[nH]c4ccccc34)NC(=O)[C@H](CCC(=O)O)NC(=O)C(C)(C)NC(=O)[C@H]([C@@H](C)c3c[nH]c4cccc(F)c34)NC(=O)[C@@H]3C[C@H](F)CN3C(=O)CNC(=O)[C@H](Cc3ccc(C(=O)O)cc3)NC(=O)[C@H](Cc3ccncc3)NC2=O)cn1
B6: SEQ ID NO: 11 (peptide)
peptide: cyclo([TyrEtNAc][4Pal][Phe(4-COOH)]G[Pro(cis-4-F)][Trp(βS-Me,4-F)][Aib]EW[Aib][Ala(pyrimidin-5-yl)]Q[Dap]G[dPro(4R-Bzl(4-F))])
SMILES: CC(=O)NCCOc1ccc(C[C@@H]2NC(=O)[C@H]3C[C@@H](Cc4ccc(F)cc4)CN3C(=O)CNC(=O)[C@H](CN)NC(=O)[C@H](CCC(N)=O)NC(=O)[C@H](Cc3cncnc3)NC(=O)C(C)(C)NC(=O)[C@H](Cc3c[nH]c4ccccc34)NC(=O)[C@H](CCC(=O)O)NC(=O)C(C)(C)NC(=O)[C@H]([C@@H](C)c3c[nH]c4cccc(F)c34)NC(=O)[C@@H]3C[C@H](F)CN3C(=O)CNC(=O)[C@H](Cc3ccc(C(=O)O)cc3)NC(=O)[C@H](Cc3ccncc3)NC2=O)cc1
B7: SEQ ID NO: 110 (peptide)
peptide: cyclo([Bip(4'-COOH)][Ala(1-bicyclo(1.1.1)pentyl)][Phe(4-COOH)]G[Pro(cis-4-F)][Trp(βS-Me,4-F)][Aib]SW[Aib][Orn]Q[Dab]G[dPro(4R-Bzl(4-F))])
SMILES: C[C@@H](c1c[nH]c2cccc(F)c12)[C@@H]1NC(=O)[C@@H]2C[C@H](F)CN2C(=O)CNC(=O)[C@H](Cc2ccc(C(=O)O)cc2)NC(=O)[C@H](CC23CC(C2)C3)NC(=O)[C@H](Cc2ccc(-c3ccc(C(=O)O)cc3)cc2)NC(=O)[C@H]2C[C@@H](Cc3ccc(F)cc3)CN2C(=O)CNC(=O)[C@H](CCN)NC(=O)[C@H](CCC(N)=O)NC(=O)[C@H](CCCN)NC(=O)C(C)(C)NC(=O)[C@H](Cc2c[nH]c3ccccc23)NC(=O)[C@H](CO)NC(=O)C(C)(C)NC1=O
B8: SEQ ID NO: 112 (peptide)
peptide: cyclo([Bip(4'-COOH)][Ala(1-bicyclo(1.1.1)pentyl)][Phe(4-COOH)]G[Pro(cis-4-F)][Trp(βS-Me,4-F)][Aib]SW[d(αMeS)][Ala(pyrimidin-5-yl)]Q[Dab]G[dPro(4R-(4-pyridylmethyl))])
SMILES: C[C@@H](c1c[nH]c2cccc(F)c12)[C@@H]1NC(=O)[C@@H]2C[C@H](F)CN2C(=O)CNC(=O)[C@H](Cc2ccc(C(=O)O)cc2)NC(=O)[C@H](CC23CC(C2)C3)NC(=O)[C@H](Cc2ccc(-c3ccc(C(=O)O)cc3)cc2)NC(=O)[C@H]2C[C@@H](Cc3ccncc3)CN2C(=O)CNC(=O)[C@H](CCN)NC(=O)[C@H](CCC(N)=O)NC(=O)[C@H](Cc2cncnc2)NC(=O)[C@@](C)(CO)NC(=O)[C@H](Cc2c[nH]c3ccccc23)NC(=O)[C@H](CO)NC(=O)C(C)(C)NC1=O
B9: SEQ ID NO: 111 (peptide)
peptide: cyclo([Bip(4'-COOH)][4Pal][Phe(4-COOH)]G[Pro(cis-4-F)][Trp(βS-Me,4-F)][Aib]SW[d(αMeS)][Ala(pyrimidin-5-yl)]Q[Dab]G[dPro(4R-(4-pyridylmethyl))])
SMILES: C[C@@H](c1c[nH]c2cccc(F)c12)[C@@H]1NC(=O)[C@@H]2C[C@H](F)CN2C(=O)CNC(=O)[C@H](Cc2ccc(C(=O)O)cc2)NC(=O)[C@H](Cc2ccncc2)NC(=O)[C@H](Cc2ccc(-c3ccc(C(=O)O)cc3)cc2)NC(=O)[C@H]2C[C@@H](Cc3ccncc3)CN2C(=O)CNC(=O)[C@H](CCN)NC(=O)[C@H](CCC(N)=O)NC(=O)[C@H](Cc2cncnc2)NC(=O)[C@@](C)(CO)NC(=O)[C@H](Cc2c[nH]c3ccccc23)NC(=O)[C@H](CO)NC(=O)C(C)(C)NC1=O
B10: SEQ ID NO: 113 (peptide)
peptide: cyclo([Bip(4'-COOH)][4Pal][Phe(4-COOH)]G[Pro(cis-4-F)][Trp(βS-Me,4-F)][Aib]EW[Aib][2PyrimAla]Q[Dab]G[dPro(4R-Bzl(4-F))])
SMILES: C[C@@H](c1c[nH]c2cccc(F)c12)[C@@H]1NC(=O)[C@@H]2C[C@H](F)CN2C(=O)CNC(=O)[C@H](Cc2ccc(C(=O)O)cc2)NC(=O)[C@H](Cc2ccncc2)NC(=O)[C@H](Cc2ccc(-c3ccc(C(=O)O)cc3)cc2)NC(=O)[C@H]2C[C@@H](Cc3ccc(F)cc3)CN2C(=O)CNC(=O)[C@H](CCN)NC(=O)[C@H](CCC(N)=O)NC(=O)[C@H](Cc2ncccn2)NC(=O)C(C)(C)NC(=O)[C@H](Cc2c[nH]c3ccccc23)NC(=O)[C@H](CCC(=O)O)NC(=O)C(C)(C)NC1=O
B11: SEQ ID NO: 115 (peptide)
peptide: cyclo([Bip(4'-COOH)][4Pal][Phe(4-COOH)]G[Pro(cis-4-F)][Trp(βS-Me,4-F)][Aib]EW[Aib][Ala(4-Pyridazinyl)]Q[Dab]G[dPro(4R-Bzl(4-F))])
SMILES: C[C@@H](c1c[nH]c2cccc(F)c12)[C@@H]1NC(=O)[C@@H]2C[C@H](F)CN2C(=O)CNC(=O)[C@H](Cc2ccc(C(=O)O)cc2)NC(=O)[C@H](Cc2ccncc2)NC(=O)[C@H](Cc2ccc(-c3ccc(C(=O)O)cc3)cc2)NC(=O)[C@H]2C[C@@H](Cc3ccc(F)cc3)CN2C(=O)CNC(=O)[C@H](CCN)NC(=O)[C@H](CCC(N)=O)NC(=O)[C@H](Cc2ccnnc2)NC(=O)C(C)(C)NC(=O)[C@H](Cc2c[nH]c3ccccc23)NC(=O)[C@H](CCC(=O)O)NC(=O)C(C)(C)NC1=O

Target: Recombinant human IL-1β (BioLegend 579404) (human, UniProt P01584 117-269)
Assay: cell-based or functional assay

B1 and B2 are the same in “MRC5 IC50” value: 0.016 nM for the first, 0.016 nM for the second.

B3 and B4 are within 1.5-fold of each other in “MRC5 IC50” value: 0.027 nM for the first, 0.04 nM for the second.

First: B5
Second: B6
The “MRC5 IC50” value of the first is 1.6-fold higher: 0.072 nM for the first, 0.045 nM for the second.

B7 and cyclo([F4ptCCA][4Pal][Phe(4-COOH)]G[Pro(cis-4-F)][Trp(βS-Me,4-F)][Aib]EW[Aib][Ala(pyrimidin-5-yl)]Q[Dab]G[dPro(4R-Bzl(4-F))]) [SEQ ID NO: 114] are within 1.5-fold of each other in “MRC5 IC50” value: 0.038 nM for the first, 0.035 nM for the second.

B8 and B9 are within 1.5-fold of each other in “MRC5 IC50” value: 0.018 nM for the first, 0.019 nM for the second.

B10 and B11 are within 1.5-fold of each other in “MRC5 IC50” value: 0.018 nM for the first, 0.023 nM for the second.
